Test: soluble on expression in E. coli; label from the status in PepcDB or PDB records

Sequence | soluble on expression in E. coli
MNPGGILMTTDIYFSHNNPHDPYAHHTTELNRDTHHLWVVLTTDSDDFDADSFTTEVIRITGYSRHEVNNGLNAMAAMTNLPHLRAIQERYYFLSIRYLASIMIAVAKADPTLWEELDLRITDALTPVTAGEVMIQSSTLSKRIAAWIKELDPEPTPEPIPKEDYVHVHTTDEATYVRIKISGPNRLILNDIITQLKDTDTEDSLPEALMAFLMEKIQLKITKYLFTPHKHPEQVWSPDYGDIGPEAYANATLVCAKDLDEVAGATEKSYTPSEKMKALIRARDGHCRFPGCCVPASKCQVDHIIPWAEGGPTAAWNLQLLCQRHHNMKTDGRFTADANGLAEIRWIGPMDVPAVTRPTGPLVKAMPRGIWGQVLRDRIQARFERIRVRALNKEDLEHHHHHH | not soluble
MGSDKIHHHHHHLELPLPPPGEDIVGQVHVIKAKYEDTFADIGTANDLGYLEMIAANPGVDPWLPGAGTEIILPTRFVLPPGPREGIVINLAEYRMYYFPKGESVVYTFPLGIGREGWGSPIANTRITAKTPNPTWTPPASIRKEHAEDGDILPTVVPAGPDNPLGPFKFTLGVPGYLIHGSNKKFGIGMRTSHGCFRMFNNNVLELSKMVPVGTPVRIINEPYKFGISAGKVYLEAHTPLDDQGNPSVVDKHTAVINALLKREDLANNLRMNWDMVRDVVAAEDGMPVEIAVPVENQGAAPMVTSIPPELQ | not soluble
MRKSRDANPFKAMPNILYPDELMDKAYNRSEKIAGELRTTTRGLSTPKSKIIEDNKIRTTASVISDNLLKIVEKTPSIDNLDPFYREILEIMVGSDEFKKSLAAVQWASEIVKKLGTQYSRKVKKAPSPQATSIVRKEFIGRVSSVLKQIYPNMAFLGVARNKLKNIPTVKNLPSVVIAGYPNVGKSTLLRTLTDAEPEVNSYPFTTKGLNIGYTEEGIQIIDTPGVLDRPIYERNDIELHAVVAINYLSDMILFVIDPTEFCGFTMEEQFNLLQEIRKTFNVPILVALTKMDVDEIEGLDKLEEDLGEYEVLKVSSFKKEGIADLRERLLDILDEQGLMGLLEELEHHHHHH | soluble
MTKNTRFSPEVRQRAVRMVLESQGEYDSQWATICSIAPKIGCTPETLRVWGLRQHERDTGGGDGGLTTAERQRLKEPERENRELRRSNDILRQASAYFAKAEFDRLWKKLEHHHHHH | not soluble
MGSDKIHHHHHHVDQKEISDIVQRILQDGPQTQEDGYCLVRAQARREWSLRLNNGRFERVSTARERGIGVQAFTPEGASGFASVDALTVEAGREAMKRAMSLAEHNAKLGAELNRAIYDASPLKTEGPNPAKLEFEHFSLAELQEQVMFLHKRLLNRSPEHSWQTSYRQVEDSWCIGRTDGTLVSYVVPRAVLMHQGTVRVQGRAKSALVQRSGVDAGLLLLEKEDSDLERRGVERGEFAKQVCVAPHLPSGHYPLIIDYGLAKGLAHEAFGHAVESDHMQESVLGEAGKLRKGLQVARPGVHIIDGPLEGDWAYQPFSANGLVRETVEIVKDGVLQAGLGDIFSAHKAGMPVSGAGRAESYGHIPLPRMTNIRLLVDHVLPLAPASDLMAEISQVRQTLRAAGELHDERKHLLLLGYRGGQVNPKTGDFVFQCDGIIDVADPNLTIYQPSIFSGKILSALQAIRVGLGGGCYDAIGTCGKGGQSVPSSGGSHRYLLLDRDEYVTLGGEQ | not soluble
MSLKAKAAFFDIDGTLYREGLISEVFKKLIKYEIIDEEKWYKEVRPEFEKWDNRKGDYDDYLLKMTEIYVDALNGLSKSQVEFIASQVVNQKGERVYTYTRDRIKWHKERGHKIITISGSPIELVRNMAEKYGFDDYRGAEYLLDENDVYTGEVIPMWDSKSKERAVHELEAKYNIDLGESYAYGDTSGDLTMLKMVGNPVCINPTKELVKEILSDEEVKNKIRIIVERKDMIYKISSRCLECDCEFVLEGHHHHHH | soluble
SSQSISPMRSISENSLVAMDFSGQKSRVIENPTEALSVAVEEGLAWRKKGSLRLGTHGS | soluble
MFISVLDLFKIGIGPSSSHTMGPMTAANVFRDHVDQLVSQTPDDLNYRVYCVLKGSLAFTGRGHATDRAVALGLHGHSPVSLAGEDVNALTAKLWATDTLQLTSGREIGFNPEDDIVFDKSDPLPQHPNGMIFYLLDEEGKKILSETFFSIGGGFICTLAEINQ | not soluble
MKKSLALLAFATLLPSAWTHADSAYINYRHQYAESTRMHADRVKFGSRLDSGWGFEGELKYKTAGDRQDVAFDNTVGNGHELTTSYQYRLNDKWMLTPSLALESIEKSTAYKMGLKLGYKVNDQLSVSGRYRYDSIKLDRDKVNHDMPDNQMDDQSINRYDVWVNYASKGPWAYEYQFTYFDADYIRYDNGRTDYEQNAAFKYRWDKHWVPFFEVGDIKVDSEDDKRQLRLRVGVQYNFL | not soluble
MLQDAVEDLGCELWGIECQRVGRFMTVRLFIDKDGGVTVDDCADVSRQVSAILDVEDPIADKYNLEVSSPGLDRPLFTLPQFERYIGQDIAVHLRIPVMERRKWQGKLERIEKDMITLIVDDQEQILVFGNIQKANVVAKF | not soluble
MGSDKIHHHHHHMDTNKLIPLLSDMAIFVTVIEQGNFSKAAKKLGVTPSAVSRQISRLEDALGIKLLQRTTRQLALTESGKLTFDYCKQMVESADQAVNASRSATSTVSGLLRVSAPKSLANKVLRPLFVEFLKCYPDIQLHLKVTDRILDPIHDGVDFLIHINDYPIEALVNIKIGRVEQVLCASPEFLQSHTPPTHPDDLKYLSCICLGENMVDNRWRFINENQQTTVQVAGSYLLNHSDMRRDAIEQGFGIGPLPDYIAQQGIKTGKLIPLLEGWQLTGSYQGDICLQYVQSKYLPNKNRVFIDFMKQKLLIIQPDS | not soluble
MKIAIVGTGISGLTCGYYLHQQHDITLFEANDYIGGHTATVDVRVGIEDYAIDTGFIVYNDRTYPNFIKMMNEIGVEGIPTQMSFSVRNDGNGLEYNGHTLTTLFAQKRNWLNPKFYRFVLEILRFNKLAKASATEQISSSQSLGAFLDEHQFSDFFSDNYILPMGAAIWSSSLADMRAFPLMFFLRFFLNHGLLDVTNRPQWYVIKGGSRAYIPPLTQGFADKIRLNSPVEKVVRSEQGVAIYANGQCEWFDEVIFACHSDQALAMLSDASSCENDILSNMAYQANDVVLHTDTSVLPKRKSAWASWNYLLEGGEEEQQRLPSLTYNMNILQHIDSSHTFCVTLNRTEDIDENKILRQFTYHHPVFTTESIAAQQRKEEIQGAQHTWFCGAYWYNGFHEDGVRSALDVVKGIAAKHNEKNDTLYEQGAALEHHHHHH | soluble
MAHHHHHHMLETQHLHTHSGRLIPPPPRRTPRRKSSVCRTPTRRHNPAESGLSASSKTTRSDVYECRMAPVRGRRESHDSTPGRPRAPEDVNYARGRSMNERPAPSKPQCAIPSKNGRLEESRASTLAVDRERFSQTRWGRSDEIISQSPLAGRSHSLREGEFCDPQALTMRLRHSLSRGYSPQCGHPTQAVVGTELAPPMPRLQGAYGTSKNRYRKTIERFIECQPTNTQKEMQSMLEEYRGRENELCEALSVAYSDSWEASVRGNDTIIQSHKNDNCSKFALNESPGMPEMKDFPRVGNGKGHFDSMNNGECNHNATAENHRQRMTKPTSSSHSTPSRFQDSHQNVDCLRSFSDVATPRRNEGINLSKSAEKERYDEDTSPHLRNGSSGGVNVPLSLGIILEQGETSPRSGGMLTPPIPADLLAR | not soluble
MSLKVGERHYHTIWLNEDGRSVDIIDQRWLPHEFRVVTLKTVADVADAIRDMWVRGAPLIGVTAAYGVAIAMAKDPSDAHLDAVWEELNETRPTAINLRWALNAMREYLRPLPEAERADAAYKRAAEIAEEDVELNRAIGANGLDVIREIASKKKPGEPVRILTHCNAGWLATVDYGTATAPIYMAVEEGIPVHVYVDETRPRNQGAYLTAWEMNGHGVPHTLIVDNAGGHLMQHGDIDMVIVGTDRTTANGDVCNKIGTYLKALAARDNDVPFYVALPSPTIDWTVQDGVKEIPIEERTADEVSFVQGRAADGSIASVRISPEGSPAANPAFDVTPARLITGLITERGIATPSPEGLKALFPERSEGHHHHHH | soluble
MDKSSDAFRTISEVAELLELPQHVLRFWETRFKQIKPMKRGGGRRYYRPVDIDLLNGIKQLLYDQGYTIKGVQRLLKENGVAFVTAFGNGDLDAMNVVIEKKHGEQTSEVTSSKPKKSSFGLLSFMRNEVETSIGSVNVYKDKTDKALLQEILFELIECKRVLDRAR | not soluble
MGSDKIHHHHHHMIRLLFASLLAASPIHAQGFAGLGTVADGFAVPAPNPTFSFPDDHGPHPDYRIEWWYLTATLTGADGIDYGIQWTLFRSALAPTTSTDWTAPQIFMGHAGLTTPDAHFSAERLARGGIGQAGVTPVPFRAFIDDWEMTSTTAEGDAYDALSLTARGVDFAYDLALQANGPLIFHGQNGFSVKSAEGQASYYYSQPFYTVTGTLTLPTGAVEVSGNAWLDREWSSQPLSDDQSGWDWFSLQLPDGARLMAFALRDTSDQPFTSATYIAPDGTTQAYGDGAITLTPLVTTDVGGRDVPTEWRLQFPDRGIDITTQPLNPQSWMDTSFPYWEGPITFTGTHDGRGYLEMTGYE | not soluble
QLHELANTFGQDLQRRYGEKVHKLTLHGGFSCPNRDGTIGKGGCTFCNVASFADEQEQFKSIHDQLTDRAGEVQRAKKYLAYFQAYTSTFAEVQVLKNMYEEALKAANIVGLCVGTRPDCVPDAVLDLLKGYVDDGYEVWLELGLQTANDKTLKRINRGHDFACYDAITRKARSLGIKVCTHLIIGLPGDTRDDNRQTLDKVLATGTDGIKLHPLHIVEGSTLAKAWRAGKLDAPEMDEYVDIACELIRLTPPEVVYHRVSATARQPTLLSPLWCEPRWLGLTNVGMALNNSGPQGS | not soluble
MGSDKIHHHHHHVIALLKAYKFRLYPTKPQQEYFVKTFGCVRFVYNKMLEERIQLYEDSKLNPDAKQKLPTPAKYKPEFPFLKEVDSLSLANAQMDLNQAYQNFFRDQSVGFPKFKSKHNDRASYTTNNLKGSIRIEDRKVKLPKIGFVKLKQHRPFDGVIKSATVSMTKTRKFFISILVDQAEAQWVPAQNKVGIDLGLEHFAILTNDEWVSEKVANPRFLRKSEEKIKKAQRALSRKKIGSKNREKARIILAKKHEKIAHQRQDFLHKLSKRMVDDNQVIVVETLKSKNMMKNHKIAKSIGDVSWYGFVRQLEYKCAFYGRTLIKADQWYASTQICSSCGVKGEKKTIDVREWMCTCGAHHDRDINASINLLLLAD | not soluble
MGTQQKDVTIKSDAPDTLLLEKHADYIASYGSKKDDYEYCMSEYLRMSGVYWGLTVMDLMGQLHRMNKEEILVFIKSCQHECGGVSASIGHDPHLLYTLSAVQILTLYDSIHVINVDKVVAYVQSLQKEDGSFAGDIWGEIDTRFSFCAVATLALLGKLDAINVEKAIEFVLSCMNFDGGFGCRPGSESHAGQIYCCTGFLAITSQLHQVNSDLLGWWLCERQLPSGGLNGRPEKLPDVCYSWWVLASLKIIGRLHWIDREKLRSFILACQDEETGGFADRPGDMVDPFHTLFGIAGLSLLGEEQIKPVSPVFCMPEEVLQRVNVQPELVS | soluble
MVTAEIRLYITEGEVEDYRVFLERLEQSGLEWRPATPEDADAVIVLAGLWGTRRDEILGAVDLARKSSKPIITVRPYGLENVPPELEAVSSEVVGWNPHCIRDALEDALDVI | not soluble
MPFVVIITGIPGVGKSTITKLALQRTRAKFKLINFGDLMFEEALKLKLVKHRDEMRKLPLEVQRELQMNAAKKIAEMAKNYPILLDTHATIKTPHGYLLGLPYEVIKILNPNFIVIIEATPSEILGRRLRDLKRDRDVETEEQIQRHQDLNRAAAITYAMHSNALIKIIENHEDKGLEEAVNELVKILDLAVKEYA | soluble
HDYLMKGNLSRLVPAIERELREADERRRRRQAEEAMHAQFNQISTIFDSLNALVYVVDMNSYELLYLNKFGAQLFGEAWEGRTCHDVLHGGRSTPCDFCTNDKLIMDGKALPPYIWEYQNSISSRWYQCIDKAIRWTD | not soluble

Reference: the DeepSol protein solubility set
